To fix the notation:
B1: VH:VL chains; a variant is named by its letters at X, in order (parent)
chain 1: QVQLVQSGAEVKKPGASVKVSCKASGYTFTDYXMHWVRQAPGQGLEWMGXVNPNXXXTTYNQKFEGRVTMTTDTSTSTAYMELRSLRSDDTAVYYCARXNXLDXWGQGTTVTVSS
chain 2: DIQMTQSPSSLSASVGDRVTITCSVSSSVSSIYLHWYQQKPGKAPKLLIYSTSNLASGVPSRFSGSGSGTDFTLTISSLQPEDFATYYCQVYSGYPLTFGGGTKVEIK

Variants of B1 are the subject of the series. Kind of series: yeast display scFab, FACS + sequencing. In a few lines: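 For the non-specific binding call, a heavy-chain CDR mutant scFab library on the yeast surface was FACS-sorted and samples from two replicates were deep sequenced. Cells were labelled with anti-Myc and either biotinylated ovalbumin (260 μg/mL in PBSB, 3 h, room temperature) or soluble membrane proteins (130 μg/mL, 20 min on ice), with gates on the top 25% and bottom 10% of binders. With membrane protein and ovalbumin samples pooled, a sequence in ≥3 of 4 positive samples and no negatives was scored positive, and the converse rule scored negatives.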
For YRKRGAGA, the non-specific binding call is on record as “binds”.
For YRKRGAGD, the non-specific binding call is “binds”.
As for YRKGGSWS, the entry is “binds”.
With YRGRTSLD the entry was “binds”; with YRGRGYAA, “binds”; with YRGRGYAY, “binds”.
Take VRKGGSLD: the non-specific binding call is reported as “binds”.
For the variant YRKGGDLY, the non-specific binding call was “no binding”.
With YRGRTAAD the entry was “binds”; with YRGRTAAA, “binds”.
As for YRGRTAAV, the entry is “binds”; as for YRGRTAAF, “binds”.
As for YRGRTAAY, the entry is “binds”; as for FRKRGAWY, “binds”; as for DRRGDSLV, “no binding”.
Take FRGRGYGA: the non-specific binding call is given as “binds”.
As to YRGRGVWV, the non-specific binding call is on record as “binds”.
In the case of YRKGSSLF, the non-specific binding call is “binds”.
With YRKGGSGV the entry was “binds”.
Consider YRKGGSGY, for which the non-specific binding call was “binds”.
For YRKGGSGA, the non-specific binding call is “binds”.
YRRGASGV: the non-specific binding call was “binds”.
With YRREGAGD the entry was “binds”; with YRRGDSAD, “binds”; with VRGRGVGY, “binds”.
In the case of YRGRGYWA, the non-specific binding call is “binds”.
Turning to YRGRGYWV, the non-specific binding call was “binds”.
As for YRGRGYWY, the entry is “binds”; as for FRKAAVAV, “binds”; as for YRRGDAAF, “binds”.
As for YRKRTFGA, the entry is “binds”.
On to YRKRSVVF chain 1 S115F, for which the non-specific binding call is reported as “binds”.
With SRGRGYSV the entry was “binds”; with YRKGGAWV, “binds”; with YRKGGAWF, “binds”.
With YRKGGAWY the entry was “binds”; with SRGRGVGA, “binds”; with SRKGGDAA, “no binding”.
As for DRRGDSSA, the entry is “no binding”; as for VRGRGVAV, “binds”; as for YRKGTAGD, “binds”.
Consider DRRGDASD, for which the non-specific binding call is reported as “no binding”.
As for YRGRGYGA, the non-specific binding call is on record as “binds”.
In the case of YRGRGYGS, the non-specific binding call is “binds”.
With YRGRGYGF the entry was “binds”; with YRREGSAV, “binds”.
With YRRGDSGV the entry was “binds”.
For YRKKSVGA, the non-specific binding call is “binds”.
YRRGASSS: the non-specific binding call is listed as “binds”.
As for DRRGDAVY, the entry is “no binding”.
As for DRRGDAVA, the entry is “no binding”; as for YRKGDSLD, “binds”; as for VRKGGSGV, “binds”.
As for YRKGSSWD, the entry is “binds”; as for VRGTGAVY, “binds”.
For SRKGAASD, the non-specific binding call is recorded as “binds”.
As for YRGTGSVD, the entry is “binds”.
Consider YRGRGVGY, for which the non-specific binding call is “binds”.
For the variant YRGRGVGD, the non-specific binding call is reported as “binds”.
On to YRGRGVGS, for which the non-specific binding call is on record as “binds”.
As for YRGRGVGF, the entry is “binds”; as for YRGRGVGA, “binds”; as for YRRESSGV, “binds”.
With YRRESSGY, the non-specific binding call was “binds”.
As for YRKRGDVV, the entry is “binds”; as for YRKRGSVV, “binds”.
With YRKRGSVF the entry was “binds”.
Take YRGRSAGV: the non-specific binding call was “binds”.
As for YRGRSAGY, the entry is “binds”; as for YRGRSAGA, “binds”.
With YRGRSAGS the entry was “binds”; with YRGRSFGV, “binds”.
YRKGSSGF: the non-specific binding call is reported as “binds”.
Take YRKGSSGD: the non-specific binding call is “binds”.
With YRKGSSGA the entry was “binds”.
In the case of YRKGSSGV, the non-specific binding call is “binds”.
As for FRKGDASD, the entry is “binds”; as for FRGRSSGV, “binds”; as for VRGTDAGV, “no binding”.
Take YRKGSAAA: the non-specific binding call was “binds”.
For YRKGAALA, the non-specific binding call is given as “binds”.
With VRGTDAVV the entry was “no binding”; with FRGRSSAF, “binds”; with FRGRSSAA, “binds”.
Turning to YRRANFLD, the non-specific binding call is reported as “binds”.
As for YRGRGVVY, the entry is “binds”; as for YRGRGVVD, “binds”; as for VRKKGVSS, “binds”.
As for YRKRGAVD, the non-specific binding call is on record as “binds”.
As for YRKESAVY, the entry is “binds”.
As for FRKGGSGD, the entry is “binds”; as for FRKGGSGV, “binds”; as for YRKGSSAA, “binds”.
With VRGRGVSY the entry was “binds”; with FRKRGSVF, “binds”.
On to FRKGTALD, for which the non-specific binding call is “binds”.
Take ARKGSSGD: the non-specific binding call is on record as “binds”.
With FRGTSFGD chain 1 T58I the entry was “binds”.
As for DRRGDDGV, the entry is “no binding”; as for DRRGDDGA, “no binding”; as for YRKEGAAA, “binds”.
With VRGRGYGV the entry was “binds”; with YRKGSSVS, “binds”.
For the variant YRKGSSVD, the non-specific binding call was “binds”.
In the case of YRKGSAGD, the non-specific binding call was “binds”.
With VRGRSSVV the entry was “no binding”; with YRGRSSWS, “binds”.
On to YRGRSSWD, for which the non-specific binding call is “binds”.
As for VRRGDDVY, the entry is “no binding”; as for YRKENYGD, “binds”.
With YRRGDSSA, the non-specific binding call is “binds”.
As for YRKKTDWS, the entry is “binds”.
As for FRGTGSWA, the entry is “binds”.
With YRGRSAWF, the non-specific binding call is “binds”.
Regarding YRGRSAWV, the non-specific binding call was “binds”.
With YRGRSAWD the entry was “binds”.
As for YRGRGVAV, the entry is “binds”; as for VRGRSSLF, “binds”.
Consider VRRETVSD, for which the non-specific binding call is reported as “binds”.
Regarding VRKRGSSS, the non-specific binding call is “binds”.
As for YRGRGYVS, the entry is “binds”.
As for FRGRGYWV, the entry is “binds”; as for VRGTGYAS, “binds”; as for YRRGDAGS, “binds”.
Take YRRGDAGF: the non-specific binding call is listed as “binds”.
Turning to VRGTGDWD, the non-specific binding call is reported as “no binding”.
With YRKGDAGD, the non-specific binding call was “binds”.
With YRGTGAGV, the non-specific binding call is on record as “binds”.
As for ARRGAAGV, the non-specific binding call is listed as “binds”.
With VRGRSDWV the entry was “no binding”; with FRGRGVGA, “binds”; with FRGRGVGD, “binds”.
As for FRGTGFVD, the non-specific binding call was “binds”.
Take YRKRGVGV: the non-specific binding call is given as “binds”.
FRRGDAGD: the non-specific binding call is “binds”.
As for YRKGGFSS, the entry is “binds”.
As to YRRGAAAA, the non-specific binding call was “binds”.
With YRRGAAAV the entry was “binds”; with YRRGDSLY, “binds”.
As for VRGRSSGS, the entry is “binds”; as for VRGTGSGA, “binds”.
YRRAADSD: the non-specific binding call is given as “binds”.
For YRRGDDGD, the non-specific binding call is “binds”.
Consider YRRGDFWA, for which the non-specific binding call was “no binding”.
Regarding VRRAADSD, the non-specific binding call is “binds”.
Regarding YRKGDSGD, the non-specific binding call is “binds”.
With YRGRSSAA the entry was “binds”.
As for VRRGDAGY, the entry is “no binding”.
As for VRKKGYVY, the entry is “binds”; as for VRRGDSSD, “no binding”.
FRGTGSGD: the non-specific binding call is “binds”.
For the variant VRRGGAAA, the non-specific binding call was “binds”.
As for YRRESAGF, the non-specific binding call is given as “binds”.
As for VRGTGSAD, the entry is “binds”; as for YRRGDAWD, “binds”; as for YRRGDAWY, “binds”.
With FRKRSFSS the entry was “binds”; with VRGTGSWD, “binds”; with FRGRSSVA, “binds”.
In the case of YRRGASWD, the non-specific binding call is recorded as “binds”.
With YRGRSSLY the entry was “binds”.
In the case of YRKGAASD, the non-specific binding call is on record as “binds”.
With DRREDALD the entry was “no binding”.
As for YRGRGYSV, the non-specific binding call is reported as “binds”.
Consider VRRASSVA, for which the non-specific binding call was “binds”.
Take YRGRGVSD: the non-specific binding call is “binds”.
As for YRGRGVSS, the entry is “binds”.
As for YRGRSSSV, the entry is “binds”; as for VRKGGVAV, “binds”.
As for YRGRSAAY, the non-specific binding call is “binds”.
With YRGRSALA the entry was “binds”; with YRKGASAF, “binds”; with VRRGDVGV, “binds”.
As for VRGTGVAV, the entry is “binds”.
With SRGRGVLV the entry was “binds”.
For YRKRGSGV, the non-specific binding call is recorded as “binds”.
Regarding YRKGGSAA, the non-specific binding call is listed as “binds”.
With YRKGSASD the entry was “binds”; with VRGRSAWS, “no binding”; with FRKGGAAA, “binds”.
In the case of FRRGDAAV, the non-specific binding call was “binds”.
As for FRGRGYAV, the entry is “binds”.
Consider YRKGAAVV, for which the non-specific binding call is recorded as “binds”.
As for FRRGDALD, the entry is “binds”; as for SRRETFVF, “binds”.
As to ARGRSDAV, the non-specific binding call was “no binding”.
On to VRRGDSVA, for which the non-specific binding call is “binds”.
Consider YRRGAAWA, for which the non-specific binding call is on record as “binds”.
As for YRKGGFVA, the entry is “binds”; as for DRKGGDWS, “binds”; as for VRGRGYAA, “binds”.
As to YRKGGSVS, the non-specific binding call is reported as “binds”.
For the variant YRGRSASS, the non-specific binding call is listed as “binds”.
As for YRGRSASV, the entry is “binds”; as for YRGRSASY, “binds”.
For YRRGDSWD, the non-specific binding call is “binds”.
As for YRKGASVD, the entry is “binds”.
As for FRGRSYVD, the entry is “binds”.
Consider DRRGDDVF, for which the non-specific binding call is recorded as “no binding”.
As for VRRANFLD, the entry is “binds”.
For the variant FRRGDSAA, the non-specific binding call was “binds”.
On to SRKKGDGS, for which the non-specific binding call was “binds”.
Take VRRGDFWA: the non-specific binding call was “no binding”.
As for YRGRTAGV, the entry is “binds”.
YRREGDWA: the non-specific binding call is reported as “binds”.
With DRGRSDVA the entry was “no binding”.
With ARGRSDVA, the non-specific binding call is “no binding”.
With ARKTGAGA the entry was “binds”; with YRKGGAVV, “binds”; with YRKGGAVD, “binds”.
VRGRSSAA: the non-specific binding call was “binds”.
FRKGGAGS: the non-specific binding call is given as “binds”.
Take VRKRGALD: the non-specific binding call is listed as “binds”.
With YRRGAAGD, the non-specific binding call is given as “binds”.
With ARRGAYGV the entry was “binds”; with FRKGSAVD, “binds”; with YRKKGDLA, “binds”.
Turning to VRGTGFGA, the non-specific binding call is recorded as “binds”.
With DRREGYGA the entry was “binds”; with FRGRGYVA, “binds”; with FRGRGYVV, “binds”.
Consider YRKKGALY, for which the non-specific binding call is on record as “binds”.
As for DRREDSSA, the entry is “no binding”; as for YRKGGAGF, “binds”; as for YRKGGAGS, “binds”.
As for VRGRSDVF, the entry is “no binding”.
As for SRGRGYGD, the entry is “binds”.
As for YRREGSGV, the non-specific binding call was “binds”.
For YRREGSVV, the non-specific binding call is “binds”.
With YRKRGSLV the entry was “binds”.
Turning to YRKRGSLY, the non-specific binding call was “binds”.
Take VRKGGSVY: the non-specific binding call was “binds”.
YRKGSAWD: the non-specific binding call is reported as “binds”.
Take FRKRGSAV: the non-specific binding call was “binds”.
With YRKGSALD, the non-specific binding call is on record as “binds”.
As to YRGRGVLF, the non-specific binding call is “binds”.
As for VRKGSSGD, the entry is “binds”; as for FRGRSSLA, “binds”.
Consider YRKRGAAA, for which the non-specific binding call is reported as “binds”.
With YRKRGAAD the entry was “binds”; with DRRANFLY, “binds”.
Turning to SRKEGAAY, the non-specific binding call was “no binding”.
With YRKGGAAV the entry was “binds”; with YRKGGAAY, “binds”; with YRKGGAAS, “binds”.
As for YRKEAAWV, the non-specific binding call is reported as “binds”.
With YRREGSLA the entry was “binds”; with YRREGSLD, “binds”; with FRKGGSLD, “binds”.
With YRKRGSSA, the non-specific binding call is “binds”.
As for FRRGDAVA, the entry is “binds”.
For YRKEAAAA, the non-specific binding call is reported as “binds”.
In the case of YRRGDASD, the non-specific binding call is listed as “binds”.
YRGRSFAV: the non-specific binding call is “binds”.
With FRREGSSD the entry was “binds”.

The values above are taken from the emibetuzumab library of Makowski et al. (2022).
